Values of other authors as cited in paper PMC9902533.

Target: Immunoglobulin E kappa (recombinant, clone AbD18705_hIgE, HCA190) (human) (UniProt P01854+P01834)
Conditions: 10 mM HEPES pH 7.4, 0.05% Tween-20, room temperature (IgE; fibrils and exosomes same buffer); FUS: 50 mM Tris-HCl pH 7.4, 25 mM KCl, 0.02% Tween-20, on-chip …

Sequence of Immunoglobulin E kappa (recombinant, clone AbD18705_hIgE, HCA190) (human) (P01854 whole entry, chain 1 of 2, other chains not shown): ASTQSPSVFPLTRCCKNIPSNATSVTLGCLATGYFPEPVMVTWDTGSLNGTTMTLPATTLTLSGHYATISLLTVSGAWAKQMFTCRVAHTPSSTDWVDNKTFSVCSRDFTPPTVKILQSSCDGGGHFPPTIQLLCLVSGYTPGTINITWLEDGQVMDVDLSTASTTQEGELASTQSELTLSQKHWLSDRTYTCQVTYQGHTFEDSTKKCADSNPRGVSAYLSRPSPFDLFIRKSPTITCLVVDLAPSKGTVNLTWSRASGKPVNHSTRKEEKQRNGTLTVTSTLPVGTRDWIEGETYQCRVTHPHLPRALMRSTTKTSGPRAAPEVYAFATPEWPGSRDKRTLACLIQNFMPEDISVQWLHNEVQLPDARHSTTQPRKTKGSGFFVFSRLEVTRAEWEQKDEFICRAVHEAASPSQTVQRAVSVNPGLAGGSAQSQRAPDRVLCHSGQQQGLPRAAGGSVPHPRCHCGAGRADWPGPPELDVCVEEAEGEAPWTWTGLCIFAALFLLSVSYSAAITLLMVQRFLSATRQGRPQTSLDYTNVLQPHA

For “TGGGGCACGTTTATCCGTCCCTCCTAGTGGCGTGCCCC [IgE aptamer]”, the Kd is listed as 50 nM.
